Here are results for five molecules from patent US20230374116A1.

Assay [1] deals with Beta RBD-Fc.
The target of assay [2] is Beta RBD-Fc. The source holds these as a separate data set.

Where two headings read alike, the source gives them in different places.

B1: 8_G11 (VHH)
VHH: QVQLVESGGGLVQAGGSLRLSCAASGRTITEYTIGWFRQAPGKEREFVTLISKSTDSTWDADSVKGRFTIARDYAKNTVYLQMNSLKPEDTAVYYCAAGSFYGRDSDAGGYDYWGQGTQVTVSS
For orientation: Kd means a measure of binding affinity in units of concentration. A low value points to higher affinity. As usually defined, the koff is the first-order rate constant of dissociation. The kon is the rate constant with which the complex forms. Higher therefore signals faster complex formation. Turning to B1, in the assay with Beta RBD-Fc [1], the Kd is 0.443 nM, the T1/2 worked out at 20 min, the koff is 0.00057 s⁻¹ and the kon turned out to be 1.3e+06 M⁻¹ s⁻¹.

B2: 3_C5 (VHH)
VHH: QVQLVESGGGLVQAGGSLRLSCAASGRTLSMRRMSWFRQAPGKEREFVATINWSSGSIYVTDSVKDRFTISRDNAENTVHLQMNMLKPEDTAVYSCAVQVDIGGYLDGYDYWGQGTQVTVSS
In the assay with Beta RBD-Fc [1], B2 gave an equilibrium dissociation constant (Kd) of 0.895 nM, a T1/2 of 14 min, a dissociation rate constant (koff) of 0.0008 s⁻¹ and a kon of 900000 M⁻¹ s⁻¹.

B3: 12_F11 (VHH)
VHH: QVQLVESGGGLVQAGGSLRLSCAASGGAFSTSAMGWFRQAPGKEREFVAVIGWRGVRTYYADSVKGRFTIARDNPQNRVYLEMSSLKSDDTGVYFCAASDGNYGLPWAHFEYDFWGQGIQVTSS
As to B3, in the assay with Beta RBD-Fc [1], the Kd was 0.236 nM, the T1/2 stood at 12 min, the koff turned out to be 0.00096 s⁻¹ and the on-rate (kon) came out at 4.1e+06 M⁻¹ s⁻¹.

B4: NbSA_A10 (VHH)
VHH: QVQLVESGGGLVQAGDSLRLSCAASGRTFSTTRMAWFRQPPGKEREFVAAIFLNTGTTYYADPVKDRFAISRDNAKNTVYLQMNSLKPEDTAVYYCAAGRFSAAPLTQSTAFESWGQGTQVTVSA
B4: in the assay with Beta RBD, the Kd stood at 0.03 nM.

B5: NbSA_D10 (VHH)
VHH: QVQLVESGGGLVQVGGSLRLSCAVSGRTSSDYSVGWFRRAQGKEREFVAALAWTVGATHYGDSVKGRFTVSRDNAKNMVYLQIDSLKPEDTGVYYCAGRYGAGLGFTERIYDYWGQGTQVTVSS
Turning to B5, the Kd in the assay with Beta RBD was 0.936 nM. In the assay with Beta RBD-Fc [2], this molecule registered a T1/2 of 18 min, a koff of 0.0006 s⁻¹ and a kon of 640000 M⁻¹ s⁻¹.
